# Values quoted from earlier work in paper PMC6707866.
# Target: Bag3 (Homo sapiens) (UniProt O95817)
# UniProt O95817, sequence (O95817 2-575): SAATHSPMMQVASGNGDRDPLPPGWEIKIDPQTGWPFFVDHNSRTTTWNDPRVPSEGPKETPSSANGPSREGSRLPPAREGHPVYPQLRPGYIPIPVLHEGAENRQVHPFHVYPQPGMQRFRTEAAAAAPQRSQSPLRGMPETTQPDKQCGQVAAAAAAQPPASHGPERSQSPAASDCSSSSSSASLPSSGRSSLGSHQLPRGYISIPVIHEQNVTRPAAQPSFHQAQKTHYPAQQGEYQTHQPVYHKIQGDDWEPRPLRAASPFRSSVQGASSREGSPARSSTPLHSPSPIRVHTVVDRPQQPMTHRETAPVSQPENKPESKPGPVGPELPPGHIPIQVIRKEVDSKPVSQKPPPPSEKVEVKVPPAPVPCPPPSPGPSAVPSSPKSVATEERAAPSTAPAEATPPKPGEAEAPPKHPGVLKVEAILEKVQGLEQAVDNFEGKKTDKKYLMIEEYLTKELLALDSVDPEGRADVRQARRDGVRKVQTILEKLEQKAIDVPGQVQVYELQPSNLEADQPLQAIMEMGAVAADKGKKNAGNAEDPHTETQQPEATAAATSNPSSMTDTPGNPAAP
substance,measurement,value
Hsp70 (from UniProt P0DMV8),Kd,25 nM
